Experimental findings from publication PMC5704914 (Biochemistry, 2017) are described below.

To fix the notation:
B1: fluorescein-labeled α11.2 IQ domain peptide AAs 1644-1668, Y1649A (peptide)
peptide: not shown
modifications: fluorescein covalently linked to the N-terminal amino group
B2: fluorescein-labeled α11.2 IQ domain peptide AAs 1644-1668, I1654A (peptide)
peptide: not shown
modifications: fluorescein covalently linked to the N-terminal amino group
B3: fluorescein-labeled α11.2 IQ domain peptide AAs 1644-1668, F1648A (peptide)
peptide: not shown
modifications: fluorescein covalently linked to the N-terminal amino group
B4: fluorescein-labeled α11.2 IQ domain peptide AAs 1644-1668, Q1655A (peptide)
peptide: not shown
modifications: fluorescein covalently linked to the N-terminal amino group
B5: fluorescein-labeled α11.2 IQ domain peptide AAs 1644-1668, K1647A (peptide)
peptide: not shown
modifications: fluorescein covalently linked to the N-terminal amino group

The assay has as its target apo-calmodulin (UniProt P0DP23 1-149). Description: fluorescence polarisation. A general note: Fluorescence polarisation rises when a labelled molecule tumbles more slowly, as on binding a larger partner.
For the molecule B1, binding was put at a Kd of 61.9 µM.
For B2 the value was 141 µM; for B3, 32.4 µM.
Turning to B4, the affinity, expressed as Kd, was 22.3 µM. The Kd values of the last two molecules are within 1.5-fold of each other.
For B5 the value was 44.2 µM.

As a reminder, the Kd is a measure of binding affinity in units of concentration.
